Source: the supplement of paper PMC9170038

Test system: MS2 coat protein
Test: apparent KD of MS2 coat protein; designed switch direction (-1 OFF switch, 1 ON switch): 1; higher = weaker reporter binding
In short: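 The buffer was Tris-HCl pH 7.5 with KCl, MgCl2, BSA, DTT, tRNA and Tween-20. In it, SNAP-549-labelled MS2 coat protein was titrated in doubling steps from 0.7 or 1.5 nM to 3 µM over chip-bound RNA switches transcribed by stalled E. coli RNA polymerase on Illumina chips. Apparent KD is the per-design median over clusters of curve fits to normalised fluorescence.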

[1] = input ligand: microRNA oligo, concentration not stated
[2] = Eterna round: R95, input ligand: FMN 200 uM
[3] = Eterna round: R95, input ligand: microRNA oligo, concentration not stated
[4] = Eterna round: R95, input ligand: none

Sequence | apparent KD of MS2 coat protein (input ligand: FMN 200 uM) | apparent KD of MS2 coat protein [1] | apparent KD of MS2 coat protein (input ligand: none) | apparent KD of MS2 coat protein [2] | apparent KD of MS2 coat protein [3] | apparent KD of MS2 coat protein [4]
UCGGGCGUACUUGCUGACAUGAGGAUCACCCAUGUAAUUGGGAAGGAUAUGGUUCCGUUUCGGUUCCAGAAGGUCCUGGGUGCU [salish99_SSNG3_r04_312] (Eterna round: R96, puzzle: Same State NG 3) | 0.819 µM | 0.331 µM | 0.443 µM | – | – | –
UUGUUUUGUAAUUAACAUGAGGAUCACCCAUGUCUUGGCUCAGAGGAUAUACAUGUUUGUUUGUAGUAGAAGGCUGUUUGUUGU [JR_SSNG3_Sub095] (Eterna round: R96, puzzle: Same State NG 3) | 0.0947 µM | 0.107 µM | 0.131 µM | – | – | –
AUACUCAUGUAAGGAUAUGCAGCCGUUUCGGCUGCAGAAGGUACUAUAAUACAUGAGGAUCACCCAUGUCUCUCGCAUUGCGAG [JL SSNG1 1.47] (Eterna round: R96, puzzle: Same State NG 1) | – | 0.0492 µM | – | – | – | –
AACACACAUGAGGAUCACCCAUGUACCGAAAUCACAGGAUAUACAUAACUGAAUAACAUUGUAGAAGGGUGGCCGG [Enorerteso] (puzzle: Same State 1) | – | – | – | 0.0237 µM | 0.0657 µM | 0.0914 µM
CAAGGACGGACACAGGAUAUCCUCACCUACACAUGAGGAUCACCCAUGUCAUAAAAGAUGGUGCAGGAGAAGGGUGCGGCGUCAA [Zarelaesdi] (puzzle: Same State 2) | – | – | – | 0.00793 µM | 0.00832 µM | 0.00636 µM
GCGAGCGUACUUGCUACAUGAGGAUCACCCAUGUUAACUGGACAGGAUAUGGUACCGUUUCGGUACCAGAAGGGUUCAUCAUGU [JL SSNG3 3.68] (Eterna round: R96, puzzle: Same State NG 3) | 0.306 µM | 0.245 µM | 0.665 µM | – | – | –
AUUUGUAAUGCAGGAUAUGAUUAACAUGAGGAUCACCCAUGUGGUGUUGUGAGUAAGGAGAGUGAUCAGAAGGGCAUUUUUUUU [JMF's solution 98] (Eterna round: R96, puzzle: Same State NG 2) | 0.799 µM | 0.295 µM | 0.526 µM | – | – | –
AGCUAUCGAAAACGAUAGCAAAAGCAUGUACAUGAGGAUCACCCAUGUCGUGUACAAGCUUUUUGCUCGUCUUAAAA [Zipper 23 - 5] (puzzle: Sensor for hsa-mir-208a) | – | – | – | 0.522 µM | 0.0139 µM | 0.534 µM
CCGAUAAUAGGACAGGAUAUGACUGUCGUCACAUGAGGAUCACCCAUGUCCCGGCAAUGCCACCGUUAGAAGGGUCCUAUCUCGA [Maeded] (puzzle: Same State 2) | – | – | – | – | 0.0135 µM | –
UUCGAGUUGCAAGGAUAUCUUAUUUAGAUUUUAAGAGAAGGUGCUUCACAGCUACAUGAGGAUCACCCAUGUCUUUCUUCUUAU [JR_SSNG1_Sub064] (Eterna round: R96, puzzle: Same State NG 1) | – | 0.0226 µM | – | – | – | –
AGAUCAUGACGAGGAUAUGGUACAUGAGGAUCACCCAUGUAUGUACUAUAACCCGUAUGAGGAAUCCAGAAGGCGUCGUGGUCA [JL SSNG2 1.17] (Eterna round: R96, puzzle: Same State NG 2) | 0.0238 µM | 0.0718 µM | 0.0859 µM | – | – | –
GGAAUAUUUACAGGAUAUGAUUUGUAAAUUCGAUCAGAAGGGUAGAUGUCUUACACGAUUUGUUACAUGAGGAUCACCCAUGUU [SameState NG1 #10] (Eterna round: R96, puzzle: Same State NG 1) | 0.031 µM | 0.0819 µM | 0.0863 µM | – | – | –
